Assay results from patent publication US12611439B2, “Ionic self-assembling peptides” (3-D MATRIX, LTD., priority 2018, dated 2026).
“Also recorded” adds a separate entry of the source. Peptide text beside a SMILES is read from it.

Columns and labels:
[1] = tested on: pig stomach submucosa; experiment: Submucosal injection in in vivo porcine model, stomach; conditions: for Appearance of stomach mucosa / submucosal elevation after injection / submucosal elevation over time compared with saline and MucoUp: pH 7.5; for Appearance of stomach mucosa: 2 mL injected; for submucosal elevation after injection / submucosal elevation over time compared with saline and MucoUp: 2 mL of 0.1% (w/v) peptide, 0.9% NaCl, pig stomach
Description: An in vivo porcine animal model was used to perform endoscopic mucosal and submucosal dissections as described in Uraoka et al. (2009) Drug Des. Devel. Ther. 2:131-8, incorporated herein by reference. Briefly, 2 mL of select peptide formulations were injected in between the […] in stomach of a pig and the submucosa was dissected using electro-knife. The gross appearance of the injection site and of dissected submucosal tissues at the injection sites were analyzed. […] Therefore, an in vivo porcine model system was used to assess the ability of these compositions to induce submucosal elevation upon injection into gastrointestinal submucosa, and the degree of tissue damage. In this model, submucosal injections with liquid compositions were performed and the morphology of the site of injection analyzed. Submucosal injection with aqueous solutions is used during the excision of lesions from the gastrointestinal tract in order to facilitate removal of the lesion by providing a safety cushion during resection (see, e.g., Kim et al. (2013) World J. Gastroenterol. 19(20): 3069-76, incorporated herein by reference). Here, aqueous pharmaceutical compositions comprising three exemplary self-assembling peptides formulated at pH 7.5: KLNL12 (SEQ ID NO:21), NLKL12 (SEQ ID NO:23) or KIQI13 (SEQ ID NO:29), were compared to an aqueous pharmaceutical composition comprising the previously described RADA16 self-assembling peptide (formulated at pH 2.5), a 0.4% solution of sodium hyaluronate (MucoUp®, Boston Scientific Japan K.K., Tokyo, Japan), and saline, pH 7.5.

[2] = tested on: porcine esophagus mucosa; experiment: Submucosal injection in in vivo porcine esophagus
Description: In another embodiment, mucosal aggregation visualized as white precipitate near the injection site was evaluated in an in vivo porcine esophagus.

[3] = Frequency sweep test (storage modulus) before and after exposure to DMEM; type: physicochemical; conditions: pH 7.5; for increase of mechanical strength after exposure to DMEM: 0.15% (w/v); for rheological properties (mechanical strength) before and after exposure to DMEM: 1% (w/v) peptide
Description: Peptides formulated as aqueous solutions were placed between the plates of a rheometer (DHR-1, TA Instruments, 20 mm plates at a measuring geometry of 500 μm or 40 mm cone and plate at a measuring geometry of 2.0° of cone angle) and frequency stress sweep tests were performed at 0.1 Hz to 10 Hz of frequency with 0.1% of strain; measurements were performed after 2 minutes of relaxation time at 37° C. To do frequency sweep tests after exposure to Dulbecco's Modified Eagle Medium (DMEM), 10 mL of DMEM was added in chamber surrounding the plates, the sample in plates was submerged into the DMEM and the frequency test was performed as described after 20 minutes.
Rheological properties of aqueous pharmaceutical compositions comprising the exemplary self-assembling peptides KLNL12 (SEQ ID NO:21), KIQI13 (SEQ ID NO:29), or NLEL12 (SEQ ID NO:33) were determined by performing a frequency sweep test over storage modulus.
In some embodiments, peptides formulated as aqueous solutions, volume 700 μl, were placed between the plates of a rheometer (DHR-1, TA Instruments, 40 mm cone and plate at a measuring geometry of 2.0° of cone angle) and frequency sweep tests were performed at 0.1 Hz to 10 Hz of frequency with 0.1% of strain; measurements were performed after 2 minutes of relaxation time at 37° C. In some embodiments, frequency sweep tests were performed after exposure to Dulbecco's Modified Eagle Medium (DMEM), where 10 mL of DMEM was added in chamber surrounding the plates, the sample in plates was submerged into the DMEM and the frequency test was performed as described after 20 minutes.

[4] = Appearance (solubility) of aqueous compositions at pH 2.5 and pH 7.5; type: physicochemical
Description: To determine the solubility of exemplary self-assembling peptides in aqueous pharmaceutical compositions formulated at acidic and neutral pH, the appearance of the pharmaceutical compositions was assessed. Homogenous and transparent appearance reflects sufficient solubility of the peptides in solution and minimal hydrogel formation. […] The appearance of exemplary self-assembling peptides at pH 2.5 and pH 7.5 is shown below in Table 6 and FIG. 20.

[5] = Net charge of self-assembling peptides in solution; type: physicochemical; conditions: for Net charge at pH 7.5: in solution at pH 7.5
From the text: Several exemplary self-assembling peptides described herein (Table 5; SEQ ID NO:21-40) were designed to have a net charge, positive or negative, when formulated at pH 7.5. In contrast, previously-described self-assembling peptides have a net zero charge at the same pH.

[6] = Viscosity determination at increasing shear rate (shear thinning); type: physicochemical; conditions: 1% (w/v) peptide, pH 7.5
Description: Peptides formulated as aqueous solutions (200 μL), were placed between the plates of a rheometer (DHR-1, TA Instruments, 20 mm plates at a measuring geometry of 500 μm) and the viscosity was measured from 0.001 s^−1 to 100 s^−1 shear rate. Thixotropic Measurements
In some clinical applications, administration of pharmaceutical compositions comprising self-assembling peptides requires exposing the compositions to pressure and/or shear thinning (e.g., during injection through a syringe needle or transferred via a pump-based system). […] To determine the shear thinning properties of pharmaceutical compositions of the self-assembling peptides formulated at pH 7.5, formulations comprising varying ionic strengths were prepared using different concentrations of sodium chloride, and viscosity measured at increasing shear rates. Thixotropic properties of formulations were also determined as well as the storage modulus over time at specific frequencies and pressure.
FIGS. 6-8 show the experimentally determined viscosity of aqueous pharmaceutical compositions comprising either 1% (w/v) KLNL12 (SEQ ID NO:21), 1% (w/v) IQIK13 (SEQ ID NO:28), or 1% (w/v) NLEL12 (SEQ ID NO:33), at pH 7.5. FIGS. 9 and 10 show the experimentally determined viscosity of aqueous pharmaceutical compositions comprising either 1% KLNL12 (SEQ ID NO:21) or 1% NLEL12 (SEQ ID NO:33), and 0.9% NaCl (to mimic physiological conditions) at pH 7.5. […] That is, decreased viscosity with increasing sheer rate. This property may advantageously facilitate application and use of the pharmaceutical compositions (e.g., due to decreased viscosity while pumping) while maintaining a desirable viscosity at a site of application (e.g., where no sheer force is being applied).

[7] = porcine esophagus, compositions of Table 9

## CC[C@H](C)[C@H](NC(=O)[C@H](CCC(N)=O)NC(=O)[C@@H](NC(=O)[C@H](CCCCN)NC(=O)[C@@H](NC(=O)[C@H](CCC(N)=O)NC(=O)[C@@H](NC(=O)[C@H](CCCCN)NC(=O)[C@@H](NC(=O)[C@H](CCC(N)=O)NC(=O)[C@@H](NC(=O)[C@H](CCCCN)NC(C)=O)[C@@H](C)CC)[C@@H](C)CC)[C@@H](C)CC)[C@@H](C)CC)[C@@H](C)CC)C(N)=O [KIQI12, Ac-KIQIKIQIKIQI-NH2] (Ac-KIQIKIQIKIQI-NH2)
[1]; 0.1% (w/v) peptide with NaCl 0.9%
  Appearance of stomach mucosa: do not appear to alter submucosal tissue morphology; also recorded: Clear/transparent
[2]; porcine esophagus, 0.1% (w/v) peptide with NaCl 0.9%, pH 7.5
  Appearance of stomach mucosa: cloudy/aggregation
[2]; [7]
  mucosal aggregation at injection sites: Mucosal aggregation was observed

## CC(=O)N[C@@H](CC(C)C)C(=O)N[C@@H](CCC(=O)O)C(=O)N[C@@H](CC(C)C)C(=O)N[C@@H](CCC(N)=O)C(=O)N[C@@H](CC(C)C)C(=O)N[C@@H](CCC(=O)O)C(=O)N[C@@H](CC(C)C)C(=O)N[C@@H](CCC(N)=O)C(=O)N[C@@H](CC(C)C)C(=O)N[C@@H](CCC(=O)O)C(=O)N[C@@H](CC(C)C)C(=O)N[C@@H](CCC(N)=O)C(N)=O [LELQ12, Ac-LELQLELQLELQ-NH2] (Ac-LELQLELQLELQ-NH2)
[2]; pig, in vivo
  mucosal aggregation at injection sites: mucosal aggregation was not observed
[2]; pig, in vivo, pH 7.5
  Appearance of stomach mucosa: clear/transparent

## CC(=O)N[C@@H](CCC(N)=O)C(=O)N[C@@H](CC(C)C)C(=O)N[C@@H](CCC(=O)O)C(=O)N[C@@H](CC(C)C)C(=O)N[C@@H](CCC(N)=O)C(=O)N[C@@H](CC(C)C)C(=O)N[C@@H](CCC(=O)O)C(=O)N[C@@H](CC(C)C)C(=O)N[C@@H](CCC(N)=O)C(=O)N[C@@H](CC(C)C)C(=O)N[C@@H](CCC(=O)O)C(=O)N[C@@H](CC(C)C)C(N)=O [QLEL12, Ac-QLELQLELQLEL-NH2] (Ac-QLELQLELQLEL-NH2)
[3]; 0.1% to 0.3% (w/v), 0.9% NaCl
  rheological property versus peptide concentration: linear relationship
[3]; 0.9% NaCl, frequency 0.1 Hz
  increase of mechanical strength after exposure to DMEM: 23 fold
[3]; 0.9% NaCl, frequency 1 Hz
  increase of mechanical strength after exposure to DMEM: 20 fold
[3]; 0.9% NaCl, frequency 10 Hz
  increase of mechanical strength after exposure to DMEM: 9 fold
[1]; 0.2% (w/v) peptide with NaCl 0.9%
  Appearance of stomach mucosa: no mucosal aggregation was observed; also recorded: do not appear to alter submucosal tissue morphology; also recorded: clear/transparent
[2]; porcine esophagus, 0.2% (w/v) peptide with NaCl 0.9%, pH 7.5
  Appearance of stomach mucosa: clear/transparent
[2]; [7]
  mucosal aggregation at injection sites: mucosal aggregation was not observed

## Ac-IEIKIEIKIEIKI-NH2 [IEIK13]
[4]
  Appearance at different pH: At pH 7.5: phase separation and cloudy appearance

## Ac-IKIQIKIQIKIQI-NH2 [IKIQ13]
[5]
  Net charge at pH 7.5: +3

## Ac-INIKINIKINIKI-NH2 [INIK13]
[5]
  Net charge at pH 7.5: +3

## Ac-IQIKIQIKIQIK-NH2 [IQIK12]
[5]
  Net charge at pH 7.5: +3

## Ac-IQIKIQIKIQIKI-NH2 [IQIK13]
[6]
  viscosity in response to increasing shear rate: exhibit sheer thinning
[5]
  Net charge at pH 7.5: +3

## Ac-KANAKANAKANA-NH2 [KANA12]
[5]
  Net charge at pH 7.5: +3

## Ac-KIQIKIQIKIQIK-NH2 [KIQI13]
[3]; 0.9% NaCl
  rheological properties (mechanical strength) before and after exposure to DMEM: increased after DMEM treatment
[3]
  rheological properties (mechanical strength) before and after exposure to DMEM: increased after DMEM treatment
[5]
  Net charge at pH 7.5: +4
[1]
  submucosal elevation after injection: resulted in submucosal elevation
  submucosal elevation over time compared with saline and MucoUp: better submucosal elevation than saline and MucoUp®

## Ac-KLDLKLDLKLDL-NH2 [KLDL12, reference compound]
[4]
  Appearance at different pH: At pH 7.5: phase separation and cloudy appearance
[5]
  Net charge at pH 7.5: 0
[5]; listed as KLD12
  Net charge at pH 7.5: about zero

## Ac-KLNLKLNLKLNLK-NH2 [KLNL13]
[5]
  Net charge at pH 7.5: +4

## Ac-KLNLKLNLKLNLKLNLK-NH2 [KLNL17]
[5]
  Net charge at pH 7.5: +5

## Ac-KLTLKLTLKLTL-NH2 [KLTL12]
[5]
  Net charge at pH 7.5: +3

## Ac-KVNVKVNVKVNV-NH2 [KVNV12]
[5]
  Net charge at pH 7.5: +3

## Ac-LKLNLKLNLKLN-NH2 [LKLN12]
[5]
  Net charge at pH 7.5: +3

## Ac-LNLKLNLKLNLK-NH2 [LNLK12]
[5]
  Net charge at pH 7.5: +3

## Ac-NLDLNLDLNLDL-NH2 [NLDL12]
[5]
  Net charge at pH 7.5: −3

## Ac-NLKLNLKLNLKL-NH2 [NLKL12]
[5]
  Net charge at pH 7.5: +3
[1]
  submucosal elevation after injection: resulted in submucosal elevation
  submucosal elevation over time compared with saline and MucoUp: better submucosal elevation than saline and MucoUp®

## Ac-QIKIQIKIQIKIQ-NH2 [QIKI13]
[5]
  Net charge at pH 7.5: +3

## Ac-RADARADARADARADA-NH2 [RADA16, reference compound]
[4]
  Appearance at different pH: At pH 7.5: precipitates; also recorded: phase separation and cloudy appearance
[5]; around neutral pH
  net charge as a function of pH: about 0
[1]; pig, in vivo, pH 2.5
  period after injection until mucosal aggregation: 10 to 15 min
[2]; pig, in vivo
  mucosal aggregation at injection sites: Mucosal aggregation was observed
[2]; pig, in vivo, pH 2.5
  Appearance of stomach mucosa: cloudy/aggregation

## Ac-RANARANARANARANA-NH2 [RANA16]
[5]
  Net charge at pH 7.5: +4
